Assay [1] addresses T1, TANK-binding kinase 1 (TBK1), endogenous, mouse primary CD4+ T cells (mouse, UniProt Q9WUN2 1-729).
T1 construct: also called endogenous TBK1
T1 sequence (looked up): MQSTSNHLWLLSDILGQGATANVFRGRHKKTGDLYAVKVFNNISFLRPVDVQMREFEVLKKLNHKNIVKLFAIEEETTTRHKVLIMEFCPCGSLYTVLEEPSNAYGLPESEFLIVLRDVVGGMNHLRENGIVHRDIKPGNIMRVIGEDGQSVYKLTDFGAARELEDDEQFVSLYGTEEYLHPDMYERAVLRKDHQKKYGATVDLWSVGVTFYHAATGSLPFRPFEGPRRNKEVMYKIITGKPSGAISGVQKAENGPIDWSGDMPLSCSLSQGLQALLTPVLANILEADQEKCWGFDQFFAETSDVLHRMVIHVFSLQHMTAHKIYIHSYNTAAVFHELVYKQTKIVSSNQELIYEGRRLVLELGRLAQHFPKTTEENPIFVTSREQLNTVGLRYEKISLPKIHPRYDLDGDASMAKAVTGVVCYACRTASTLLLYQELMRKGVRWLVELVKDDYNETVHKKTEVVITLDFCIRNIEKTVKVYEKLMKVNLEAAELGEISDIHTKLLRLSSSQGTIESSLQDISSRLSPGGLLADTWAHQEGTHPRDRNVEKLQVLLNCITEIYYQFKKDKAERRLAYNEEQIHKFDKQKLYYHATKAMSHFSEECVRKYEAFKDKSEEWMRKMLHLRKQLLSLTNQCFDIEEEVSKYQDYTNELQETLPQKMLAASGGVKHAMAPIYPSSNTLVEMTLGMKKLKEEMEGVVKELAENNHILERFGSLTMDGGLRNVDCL
The assay can be described thus: co-IP (anti-ICOS IP, immunoblot), mouse primary CD4+ T cells (FIG. 2a). An excerpt:
IPs or whole cell lysates (WCL) were immunoblotted with the indicated Abs. 5% WCL was used as input to control for IP Western. […] Jurkat T cells transfected with WT ICOS, mIProx, YF or tailless (TL) ICOS plasmids were stimulated with anti-CD3 plus −ICOS mAbs prior to IP and immunoblotting. […] In vitro activated primary mouse CD4⁺ T cells were stimulated with anti-CD3 plus the indicated costimulatory mAbs, and IP or WCL were subjected to immunoblotting with the indicated Abs. Shown are representative of three experiments.
The human leukemic Jurkat T cell line, JTAg, was previously described (Li, J et al. J Immunol 2013, 191(1): 200-207; Rolf J et al., J Immunol 2010, 185(7): 4042-4052) and the HEK 293T cell line was obtained from ATCC. These cell lines have not been recently STR profiled but tested negative for mycoplasma contamination. JTAg cells in logarithmic growth phase were transfected with plasmid DNAs by electroporation and incubated for 24 hours.
For orientation: In western blotting, separated proteins are transferred to a membrane and probed.

The target in assay [2] is p85α, the regulatory subunit of PI3K, endogenous, mouse primary CD4+ T cells (mouse, UniProt P26450 2-724). As to the kind of experiment: co-IP (anti-ICOS IP, immunoblot), mouse CD4+ T cells unstimulated or stimulated with anti-CD3, anti-ICOS or both (FIG. 6a).
Sequence of p85α, the regulatory subunit of PI3K, endogenous, mouse primary CD4+ T cells (P26450 2-724): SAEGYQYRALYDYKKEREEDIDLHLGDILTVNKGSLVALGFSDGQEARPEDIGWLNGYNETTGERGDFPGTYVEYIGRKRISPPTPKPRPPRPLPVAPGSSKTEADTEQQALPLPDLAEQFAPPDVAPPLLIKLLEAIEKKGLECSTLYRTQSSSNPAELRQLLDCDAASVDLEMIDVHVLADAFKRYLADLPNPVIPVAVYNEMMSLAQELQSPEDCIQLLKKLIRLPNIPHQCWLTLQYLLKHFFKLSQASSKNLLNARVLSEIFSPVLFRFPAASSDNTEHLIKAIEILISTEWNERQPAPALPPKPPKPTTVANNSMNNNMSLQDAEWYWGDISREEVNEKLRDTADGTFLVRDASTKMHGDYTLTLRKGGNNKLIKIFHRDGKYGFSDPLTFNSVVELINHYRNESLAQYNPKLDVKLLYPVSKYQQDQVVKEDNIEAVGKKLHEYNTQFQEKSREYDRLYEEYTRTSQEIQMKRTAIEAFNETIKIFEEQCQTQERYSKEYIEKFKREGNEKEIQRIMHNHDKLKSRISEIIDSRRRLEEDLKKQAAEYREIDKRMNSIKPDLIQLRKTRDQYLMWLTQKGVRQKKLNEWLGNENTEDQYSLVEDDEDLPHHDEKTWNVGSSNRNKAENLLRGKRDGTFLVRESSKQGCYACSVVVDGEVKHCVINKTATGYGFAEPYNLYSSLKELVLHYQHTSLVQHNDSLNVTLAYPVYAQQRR
Assay [3] has as its target T2, TRAF3, endogenous, mouse primary CD4+ T cells (mouse, UniProt Q60803 1-567).
T2 sequence (looked up): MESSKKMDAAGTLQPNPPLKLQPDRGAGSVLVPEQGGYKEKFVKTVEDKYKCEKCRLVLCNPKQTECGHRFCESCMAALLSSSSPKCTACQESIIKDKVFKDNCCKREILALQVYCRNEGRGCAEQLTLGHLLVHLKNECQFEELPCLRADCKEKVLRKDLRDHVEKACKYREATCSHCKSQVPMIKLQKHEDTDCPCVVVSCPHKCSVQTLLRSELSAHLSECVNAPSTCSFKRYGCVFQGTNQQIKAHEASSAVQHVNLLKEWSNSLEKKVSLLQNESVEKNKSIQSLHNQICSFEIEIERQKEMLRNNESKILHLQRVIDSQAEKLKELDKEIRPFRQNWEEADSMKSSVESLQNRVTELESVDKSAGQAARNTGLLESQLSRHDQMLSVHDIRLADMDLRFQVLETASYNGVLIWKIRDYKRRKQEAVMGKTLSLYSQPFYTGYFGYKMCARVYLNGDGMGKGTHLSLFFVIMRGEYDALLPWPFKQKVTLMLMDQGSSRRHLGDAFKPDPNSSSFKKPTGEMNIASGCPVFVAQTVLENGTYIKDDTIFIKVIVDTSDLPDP
As to the kind of experiment: anti-ICOS IP and immunoblot, mouse primary CD4+ T cells restimulated with anti-CD3 plus anti-ICOS (FIG. 14).

The target of assay [4] is T3, TRAF2, endogenous, mouse primary CD4+ T cells (mouse, UniProt P39429 2-501).
T3 sequence (looked up): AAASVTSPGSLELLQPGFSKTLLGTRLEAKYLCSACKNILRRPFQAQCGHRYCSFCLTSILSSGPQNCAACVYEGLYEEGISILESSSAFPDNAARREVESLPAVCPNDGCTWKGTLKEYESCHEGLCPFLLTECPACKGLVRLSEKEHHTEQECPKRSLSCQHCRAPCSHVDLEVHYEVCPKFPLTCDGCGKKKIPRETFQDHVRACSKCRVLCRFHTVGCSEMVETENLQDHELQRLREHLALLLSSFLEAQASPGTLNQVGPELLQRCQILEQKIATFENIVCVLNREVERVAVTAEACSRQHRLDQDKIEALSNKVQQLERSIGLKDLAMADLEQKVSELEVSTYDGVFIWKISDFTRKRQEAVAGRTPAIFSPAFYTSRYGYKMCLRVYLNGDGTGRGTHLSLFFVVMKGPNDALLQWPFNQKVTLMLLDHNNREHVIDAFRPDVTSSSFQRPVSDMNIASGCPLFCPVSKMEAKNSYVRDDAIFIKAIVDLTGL
The assay is described as above.

Assay [5] concerns the target T4, IKKϵ, endogenous, mouse primary CD4+ T cells (mouse, UniProt Q9R0T8 1-717).
T4 construct: also called IKKi
T4 sequence (looked up): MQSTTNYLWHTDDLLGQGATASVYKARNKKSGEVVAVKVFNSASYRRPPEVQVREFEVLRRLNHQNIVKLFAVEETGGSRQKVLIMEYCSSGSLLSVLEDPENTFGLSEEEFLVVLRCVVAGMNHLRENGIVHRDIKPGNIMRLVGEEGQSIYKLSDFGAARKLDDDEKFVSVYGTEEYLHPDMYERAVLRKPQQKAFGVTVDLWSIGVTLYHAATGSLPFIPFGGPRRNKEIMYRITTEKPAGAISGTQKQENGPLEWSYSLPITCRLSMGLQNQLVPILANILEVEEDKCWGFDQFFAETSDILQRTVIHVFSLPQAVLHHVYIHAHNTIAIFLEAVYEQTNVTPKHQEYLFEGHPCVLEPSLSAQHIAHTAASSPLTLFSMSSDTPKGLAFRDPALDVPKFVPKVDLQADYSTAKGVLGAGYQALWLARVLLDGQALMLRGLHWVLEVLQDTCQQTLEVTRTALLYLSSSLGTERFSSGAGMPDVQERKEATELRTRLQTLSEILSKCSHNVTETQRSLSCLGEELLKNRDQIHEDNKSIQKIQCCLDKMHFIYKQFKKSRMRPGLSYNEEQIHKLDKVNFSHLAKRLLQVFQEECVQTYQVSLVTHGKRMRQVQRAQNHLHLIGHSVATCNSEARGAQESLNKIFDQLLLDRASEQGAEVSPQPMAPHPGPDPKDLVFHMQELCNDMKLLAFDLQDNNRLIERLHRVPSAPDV
Described as above.

Assay [6] has as its target TRAF5, endogenous, mouse primary CD4+ T cells (mouse, UniProt P70191 1-558). The description is as above.

The results in this text go back to patent US20180369326A1 (LA JOLLA INSTITUTE FOR ALLERGY AND IMMUNOLOGY, published 2018).

Sequence of TRAF5, endogenous, mouse primary CD4+ T cells (P70191 whole entry): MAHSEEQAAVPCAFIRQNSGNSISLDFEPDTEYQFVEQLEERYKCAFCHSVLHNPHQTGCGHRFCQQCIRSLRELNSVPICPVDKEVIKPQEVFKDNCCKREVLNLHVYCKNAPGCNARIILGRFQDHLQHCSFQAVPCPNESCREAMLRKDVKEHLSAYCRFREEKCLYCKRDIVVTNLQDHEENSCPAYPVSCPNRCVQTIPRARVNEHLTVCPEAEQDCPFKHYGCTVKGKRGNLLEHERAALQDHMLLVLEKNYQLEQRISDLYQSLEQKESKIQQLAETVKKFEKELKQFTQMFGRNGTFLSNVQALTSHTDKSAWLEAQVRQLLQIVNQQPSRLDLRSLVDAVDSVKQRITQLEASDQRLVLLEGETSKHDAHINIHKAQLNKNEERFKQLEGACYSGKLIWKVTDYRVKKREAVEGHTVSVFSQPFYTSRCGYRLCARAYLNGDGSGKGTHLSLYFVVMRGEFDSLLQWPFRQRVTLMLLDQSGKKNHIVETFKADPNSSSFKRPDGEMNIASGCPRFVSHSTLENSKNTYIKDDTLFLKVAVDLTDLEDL

B1: ICOS, endogenous, of mouse primary CD4+ T cells (receptor)
chain: EINGSADHRMFSFHNGGVQISCKYPETVQQLKMRLFREREVLCELTKTKGSGNAVSIKNPMLCLYHLSNNSVSFFLNNPDSSQGSYYFCSLSIFDPPPFQERNLSGGYLHIYESQLCCQLKLWLPVGCAAFVVVLLFGCILIIWFSKKKYGSSVHDPNSEYMFMAAVNTNKKSRLAGVTS
Turning to B1, the binding result in assay [1] is recorded as “binds”; in assay [2] it was “binds”; in assay [3] it was “no binding”; in assay [4], “no binding”; in assay [5], “no binding”; in assay [6], “no binding”.
